Source: patent publication US9701733B2, “Maspin-based treatment of cancer” (Northwestern University, priority 2011, dated 2017)
Where a chain is given by its changes, count along the chain named. In names and notes the source's numbering stands. Entries after “also recorded” stand apart in the source; their conditions may differ.

B1: single mutant (E201K): GST-maspin point mutant E201K (protein, UniProt P36952 1-375, looked up, variant E201K)
Serpin B5: MDALQLANSAFAVDLFKQLCEKEPLGNVLFSPICLSTSLSLAQVGAKGDTANEIGQVLHFENVKDVPFGFQTVTSDVNKLSSFYSLKLIKRLYVDKSLNLSTEFISSTKRPYAKELETVDFKDKLEETKGQINNSIKDLTDGHFENILADNSVNDQTKILVVNAAYFVGKWMKKFSESETKECPFRVNKTDTKPVQMMNMKATFCMGNIDSINCKIIELPFQNKHLSMFILLPKDVEDESTGLEKIEKQLNSESLSQWTNPSTMANAKVKLSIPKFKVEKMIDPKACLENLGLKHIFSEDTSDFSGMSETKGVALSNVIHKVCLEITEDGGDSIEVPGARILQHKDELNADHPFIYIIRHNKTRNIIFFGKFCSP
modifications: GST tag
B2: double mutant (K268E, K270E): GST-maspin mutant K268E, K270E (protein, UniProt P36952 1-375, looked up, variant K268E K270E)
Serpin B5: B1 Serpin B5 with K201E, K268E, K270E
modifications: GST fusion
B3: triple mutant (E201K, K268E, K270E): GST-maspin mutant E201K, K268E, K270E (protein, UniProt P36952 1-375, looked up, variant E201K K268E K270E)
Serpin B5: B1 Serpin B5 with K268E, K270E
modifications: GST fusion
B4: GST-maspin: Glutathione S-transferase (GST)-tagged recombinant wild-type maspin; 125I-labeled for binding assay (protein, UniProt P36952 1-375, looked up)
Serpin B5: B1 Serpin B5 with K201E
modifications: GST tag; 125I label

Key:
HUVEC endothelial cells = assay: HUVEC tube formation assay on MatriGel; type: cell-based; conditions: for effect on HUVEC tube formation: 1.0 uM; for potency on tube angiogenesis: compared to the G-Helix peptide or GST-maspin (FIG. 7)
Experimental: HUVECs were plated on MatriGel for tube formation assay. Various peptides were tested for the potency on tube angiogenesis.
HUVEC endothelial cells were used to test the effect of synthetic maspin peptides on HUVEC tube formation assay in cell culture systems. Random peptide was used as a negative control and maspin G-helix peptide as a positive control. G-Helix was previously found to be effective in inhibiting endothelial cell migration, thereby mimicking maspin effect against angiogenesis. […] At 1.0 uM, G-helix was not effective.

MCF10A cells = assay: Adhesion assay of MCF10A cells on self-deposited (endogenous) matrix; type: cell-based, human; conditions: for effect of maspin-derived competitive peptide on MCF10A cell adhesion: cells pre-incubated with peptide, adhesion measured after 30 min, self-deposited matrix; for effect of GST-maspin mutant on MCF10A cell adhesion: compared to wild-type GST-maspin; for effect of GST-maspin mutant on MCF10A cell adhesion / reduction of MCF10A cell adhesion compared to WT GST-maspin: endogenous matrix; for reduction of MCF10A cell adhesion compared to WT GST-maspin: recombinant protein
Experimental: Assays utilizing endogenous ECM proteins generated by MCF10A cells were performed as previously described (Langhofer et al. (1993) J Cell Sci 105 (Pt 3), 753-764; herein incorporated by reference in its entirety). MCF10A cells were plated in 96-well dishes and allowed to reach confluence. Cells were washed with PBS and treated for 5 min with fresh sterile 20 mM NH4OH, followed by extensive water washes. Wells were blocked with heat-denatured BSA (10 mg/ml) for 1 hr at room temperature. Subconfluent cultures were trypsinized, washed with 37° C. serum-free DMEM/F12 medium, and incubated with either antibodies or recombinant proteins (500 nM) for 30 min at 37° C. (when assaying endogenous maspin enzyme-free cell dissociation solution was used instead of trypsin). In all assays, 2.0×10^4 cells were plated in triplicates and allowed to adhere for 30 min at 37° C. The GST protein was used as a control. Wells were washed with 37° C. serum-free DMEM/F12 and adhered cells were fixed with 5% gluteraldehyde and stained with crystal violet dye. Cell adhesion was determined by the reading at 590 nm subtracted by the blank value (determined by BSA-coated wells, 5% of maximal cell adhesion). Cell adhesion was plotted as percentage of the corresponding control value. Cell surface stripping of uPA from uPAR was conducted as previously described (Stoppelli et al. (1986) Cell 45, 675-684; herein incorporated by reference in its entirety). Subconfluent cultures were washed twice with DMEM/F12 supplemented with 20 mM HEPES and 1 mg/ml BSA. Then, cells were incubated with 50 mM glycine-HCl (pH 3.0) with 100 mM NaCl at 25° C. for 2 min and the reaction was halted by neutralizing with 500 mM HEPES (pH 7.4). In the function blocking studies, cells were first incubated with the function blocking antiuPAR or control rabbit IgG for 10 min, uPA and recombinant GST-maspin was added for another 20 min.

WT MEF cell surface = assay: 125I-GST-maspin binding to wild type MEF cell surface; set-up: species or system mouse; conditions: WT MEFs; 4° C., 90 min; <500 nM
Experimental: (§1) Bacterial recombinant GST-maspin was labeled with ^125I as described previously (Conlon, M. (2002) Preparation of ^125I-Labeled Peptides and Proteins with High Specific Activity using IODO-GEN, 2nd Edition Ed. The Protein Protocols Handbook (Walker, J. M., Ed.), Humana Press Inc, Totowa, N.J.; herein incorporated by reference in its entirety). Wild type (WT) and uPAR−/− mouse embryo fibroblasts (MEFs) (5.0×10^4 cells) were cultured in DMEM with 10% FBS on 96-well plate overnight. Cells were chilled on ice for 30 min, washed three times with ice-cold DMEM, and then blocked on ice for 60 min using blocking buffer (DMEM containing 5% heat inactivated BSA). MEFs were incubated with increasing concentrations of ^125I-GST-maspin in blocking buffer at 4° C. for 90 min. After incubation, unbound ^125I-GST-maspin protein was removed by washing three times with blocking buffer. Specific ^125I-GST-maspin binding was determined by subtracting the detected radioactivity by the nonspecific binding (determined in the presence of a 50-fold excess of non-labeled GST-maspin). In the studies evaluating the uPA/uPAR interactions, ^125I-GST-maspin was treated with ABS4A and S-20 (Santa Cruz) antibodies, which block the RCL and N-terminal domains, prior to adding to WT MEF cells. In one set, WT MEF cells were treated with an anti-mouse uPAR antibody (R&D), which blocks uPA binding to uPAR. […]

uPAR-/- MEFs = assay: 125I-GST-maspin binding to uPAR-/- MEF cell surface; set-up: species or system mouse; conditions: 4° C., 90 min, <500 nM
Experimental: as §1

Molecule	effect of maspin-derived competitive peptide on MCF10A cell adhesion (MCF10A cells)	effect of GST-maspin mutant on MCF10A cell adhesion (MCF10A cells)	reduction of MCF10A cell adhesion compared to WT GST-maspin (MCF10A cells)	also measured
STANAKVKLSIP (listed as Homo sapiens) [peptide X, synthetic maspin mimetic peptide]	–	–	–	effect on HUVEC tube formation (HUVEC endothelial cells): highly effective; potency on tube angiogenesis (HUVEC endothelial cells): highly potent
TANAEVKLSIPK (listed as Homo sapiens) [peptide Y, synthetic maspin mimetic peptide]	–	–	–	effect on HUVEC tube formation (HUVEC endothelial cells): highly effective; potency on tube angiogenesis (HUVEC endothelial cells): highly potent
NPSTMANAKVKLSIPK (listed as Homo sapiens) [peptide 260-275]	inhibited cell adhesion	–	–	effect of maspin-derived competitive peptide on MCF10A cell adhesion (MCF10A cells; listed as 260-275 peptide): reduced
TDTKPVQMMNMEATFCMGNIDSI (listed as Homo sapiens) [190-211]	inhibited cell adhesion; also recorded: competed with GST-maspin	–	–	–
peptide 169-189: peptide corresponding to maspin residues 169-189 (s3C) (GKWMKKFSESETKECPFRVNK; UniProt P36952 169-189, looked up, fragment)	not s3C (peptide 169-189) was important	–	–	–
peptide 181-202: competitive peptide corresponding to maspin amino acid residues 181-202 (KECPFRVNKTDTKPVQMMNMEA; UniProt P36952 181-202, looked up, fragment)	inhibited cell adhesion; also recorded: competed with GST-maspin	–	–	–
B1	–	inhibited cell adhesion; also recorded: significantly reduced	16%	–
B2	–	inhibited cell adhesion	17%	effect of GST-maspin mutant on MCF10A cell adhesion (MCF10A cells; listed as double mutant GST maspin (K268E, K270E)): reduced
B3	–	inhibited cell adhesion	approximately 28%	–
B4	–	–	–	specific 125I-GST-maspin binding to cell surface (WT MEF cell surface): displayed specific 125I-GST-maspin binding; specific 125I-GST-maspin binding to cell surface (uPAR-/- MEFs): absent of any specific 125I-GST-maspin binding; maspin-induced MCF10A cell adhesion after stripping endogenous uPA (MCF10A cells; endogenous uPA acid-stripped before GST-maspin): substantially blocks; maspin-mediated adhesion of uPA-stripped MCF10A cells after addition of exogenous uPA (MCF10A cells; uPA acid-stripped, exogenous uPA 800 nM): 154.06 % of GST control
